Measured values as given in publication PMC2120661.

Molecular target: VLA-5 integrin (alpha5 beta1), affinity-isolated from mouse thymocyte lysate (mouse (endogenous in thymocytes)) (UniProt P09055)
Experiment: ELISA

B1: L1-RGD peptide (peptide)
peptide: CWRGDGRDLQERGDSDK
How did the percent inhibition of the binding of L1 to VLA-5 at 500 ug/ml peptide turn out when B1 was run?
The percent inhibition of the binding of L1 to VLA-5 at 500 ug/ml peptide was 80%.
